Measured values reported in patent publication US12043658B2, “Conjugate comprising an active MMP-9-binding peptide” (Daiichi Sankyo Company, Limited, priority 2017, dated 2024).
Each block holds one molecule with its values, some of them ahead of it.

Assays:
[1] = target: T1, human MMP-9 enzyme active domain E402Q mutant (Homo sapiens, UniProt P14780, E402Q); experiment: Size exclusion chromatography binding to hMMP-9(cat)_E402Q_His6; details: 25 μM enzyme, 75 μM inhibitor
T1 construct: an enzyme active domain E402Q mutant (Phe107-Pro449, E402Q) and a His tag; made in house; host or cells: FreeStyle 293F
T1 sequence (P14780 107-449 E402Q): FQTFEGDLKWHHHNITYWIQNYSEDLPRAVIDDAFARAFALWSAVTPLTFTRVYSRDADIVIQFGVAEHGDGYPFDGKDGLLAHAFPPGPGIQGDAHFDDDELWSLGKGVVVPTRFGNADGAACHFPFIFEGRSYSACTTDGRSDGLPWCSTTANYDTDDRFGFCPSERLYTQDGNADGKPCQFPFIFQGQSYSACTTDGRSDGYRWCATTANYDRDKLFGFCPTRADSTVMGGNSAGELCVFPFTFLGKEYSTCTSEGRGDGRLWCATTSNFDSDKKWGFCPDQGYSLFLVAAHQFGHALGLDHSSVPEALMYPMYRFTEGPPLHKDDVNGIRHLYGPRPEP
Method: (§1) With M91005 and M91011 prepared in (1-2), active hMMP-9(cat)_His6 prepared in (2-1-4), and hMMP-9(cat)_E402Q_His6 prepared in (11-3), the binding activity was evaluated by size exclusion chromatography. 25 μM active hMMP-9(cat)_His6 or hMMP-9(cat)_E402Q_His6 and 75 μM active MMP-9-binding peptide or hTIMP-1 (in-house preparation) were mixed, and reacted at 4° C. for 1 hour. After the reaction, 10 μl of the reaction solution was analyzed by size exclusion chromatography. The chromatographic conditions were as follows.
(§2) Detection: Absorbance (280 nm)
(§3) When only active hMMP-9(cat)_His6 was analyzed, the peak of active hMMP-9(cat)_His6 was detected at a retention time of 7.0 minutes (FIG. 53(A)). When a mixture reaction solution of active hMMP-9(cat)_His6 and hTIMP-1 or active MMP-9-binding peptides M91005 or M91011 was analyzed, the retention time of the peak of active hMMP-9(cat)_His6 was shifted to the high molecular weight side (FIG. 53(A)). […] When only human MMP-9(cat)_E402Q_His6 was analyzed, the peak of hMMP-9(cat)_E402Q_His6 was detected at a retention time of 7.1 minutes (FIG. 53(B)). When a mixed reaction solution of human MMP-9(cat)_E402Q_His6 and hTIMP-1 was analyzed, the retention time of the peak of hMMP-9(cat)_E402Q_His6 was shifted to the high molecular weight side (FIG. 53(B)). […] In contrast, when a mixture reaction solution of hMMP-9(cat)_E402Q_His6 and the active MMP-9-binding peptide M91005 or M91011 was analyzed, the retention time of the peak of the hMMP-9(cat)_E402Q_His6 was not changed (FIG. 53(B)). It should be noted that when only hTIMP-1 or the active MMP-9-binding peptides M91005, M91011 was analyzed, the peak of hTIMP-1 was detected at a retention time of 7.3 minutes, the peak of the active MMP-9-binding peptide M91005 was detected at a retention time of 8.2 minutes, and the peak of the active MMP-9-binding peptide M91011 was detected at a retention time of 8.1 minutes (FIG. 53(C)).

[2] = target: T2, active human MMP-9 enzyme active domain (Homo sapiens, UniProt P14780); experiment: Size exclusion chromatography binding to active hMMP-9(cat)_His6; design: an enzyme active domain (Phe107-Pro449) and a His tag; made in house; host or cells: FreeStyle 293F; details: 25 μM enzyme, 75 μM inhibitor
T2 sequence (P14780 107-449): as the sequence (P14780 107-449 E402Q) above, with Q296E counted along it
Method: as §1, §2, §3

[3] = target: T3, human MMP-9 (active hMMP-9(cat)_His6) (Homo sapiens, UniProt P14780); experiment: Human MMP-9 inhibitory activity of active MMP-9-binding peptide derivatives (substrate peptide); assay type: biochemical; details: 0.6 nM active hMMP-9(cat)_His6
T3 construct: an enzyme active domain (Phe107-Pro449) and a His tag; made in house; host or cells: FreeStyle 293F
T3 sequence (P14780 107-449): as the sequence (P14780 107-449 E402Q) above, with Q296E counted along it
Method: The substrate peptide MOCAc-KPLGL-A2pr (Dnp)-AR-NH2 (SEQ ID NO: 30 (FIG. 46)) (PEPTIDE […], INC.; 3226-v) was dissolved in water to 1 mM, and diluted with an assay buffer (50 mM Tris-HCl, 200 mM NaCl, 2 mM CaCl2, pH 7.5) to use at a final concentration of 2.5 to 10 μM. Fifty μl each of the active hMMP-9(cat)_His6 diluted with the assay buffer and the active MMP-9-binding peptide were mixed, and reacted at 37° C. for 1 hour. Then, 100 μl of the substrate diluted with the assay buffer was added, and fluorescence signals (excitation 328 nm/emission 393 nm) were measured with Enspire (PerkinElmer, Inc.). The final concentration of active hMMP-9(cat)_His6 was 0.4 nM, and the final concentration of the active MMP-9-binding peptide was 0.5 to 25 nM. For reactions and measurements, a ProteoSave™ SS96F black plate (Sumitomo Bakelite Co., Ltd.) was used.
According to the method described in (4-1), human MMP-9 inhibitory activity of each of the binding peptides was evaluated with 0.6 nM final concentration of active hMMP-9(cat)_His6 and 0.0015 to 100 nM final concentration of each active MMP-9-binding peptide (FIGS. 11(A), 12(A), and 13(A)).

[4] = target: T2, active human MMP-9 enzyme active domain; experiment: ELISA binding to immobilized active human MMP-9 enzyme active domain; details: 1 to 1,000 nM peptide, S-tag detection
Method: (§4) The biotin-labeled pro-hMMP-9(cat)_His6_FLAG_Avi obtained in (2-1-6) or biotin-labeled active hMMP-9(cat)_FLAG_Avi obtained in (2-1-7) was immobilized on a streptavidin coated 96-well plate (Thermo Fisher Scientific). After blocking with 3% BSA, 1 to 1,000 nM of the binding peptides were added, and reacted at room temperature for 1.5 hours. After washing, goat anti-S-Tag HRP conjugated (Bethyl Laboratories, Inc.) was added, and reacted at room temperature for 1 hour. After washing, substrates of ELISA POD substrate A.B.T.S kit (Nacalai Tesque Inc.) were added, and reacted at room temperature. After adding a reaction stop solution, the absorbance at 405 nm was measured with Enspire (PerkinElmer, Inc.), and MMP-9-binding activity of the active MMP-9-binding peptides was evaluated.

[5] = target: T4, pro human MMP-9 enzyme active domain (Homo sapiens, UniProt P14780); experiment: ELISA binding to immobilized pro human MMP-9 enzyme active domain; details: 1 to 1,000 nM peptide, S-tag detection
T4 construct: a propeptide (Ala20-Arg106), an enzyme active domain (Phe107-Pro449), a FLAG tag; made in house; host or cells: FreeStyle 293F
T4 sequence (P14780 20-449): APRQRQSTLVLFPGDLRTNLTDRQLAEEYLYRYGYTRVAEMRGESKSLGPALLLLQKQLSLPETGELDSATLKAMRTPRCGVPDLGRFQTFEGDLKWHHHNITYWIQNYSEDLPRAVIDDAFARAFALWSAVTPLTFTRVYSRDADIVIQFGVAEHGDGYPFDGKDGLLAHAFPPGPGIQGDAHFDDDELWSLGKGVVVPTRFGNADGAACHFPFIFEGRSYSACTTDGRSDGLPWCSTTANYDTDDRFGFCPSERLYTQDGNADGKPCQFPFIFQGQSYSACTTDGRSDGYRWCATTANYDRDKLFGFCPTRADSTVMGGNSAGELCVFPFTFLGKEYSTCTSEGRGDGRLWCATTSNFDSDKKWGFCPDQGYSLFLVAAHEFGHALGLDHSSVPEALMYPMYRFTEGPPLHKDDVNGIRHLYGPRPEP
Method: as §4

Molecule: hTIMP-1: hTIMP-1 (in-house preparation) [reference compound]
binding to human MMP-9 enzyme active domain E402Q mutant (peak shift) [1]: binds to the human MMP-9 enzyme active domain E402Q mutant
binding to active human MMP-9 enzyme active domain (peak shift) [2]: bind to the active human MMP-9 enzyme active domain

B2: M91002_G2: C-terminal derivative of M91002: Stag+linker 2 at the N-terminal, C-terminal 2-mer Gly-Gly (protein)
chain: GSGMKETAAAKFERQHMDSPDLGTDDDDKAMAENLYFQGDPQFGLFSKYRTPNCRTGRGPACQMGFQPVCGSDMSTYANECTLCMKIREGGHNIKIIRNGPCGG
human MMP-9 inhibitory activity IC50 compared with parent [3]: equivalent to that of M91002

B5: M91005_D1G-Fc-01: N-terminal derivative Fc conjugate: Stag+linker 1, M91005_D1G, C-terminal 6-mer, G4S linker and human IgG1 Fc (protein)
chain: GSGMKETAAAKFERQHMDSPDLGTDDDDKAMADIGSANSGPQFGLFSKYRTPNCRKRGGPSCQMSYNPVCGSDMSTYANECTLCMKIREGGHNIKIIRNGPCGASAAAGGGGSDKTHTCPPCPAPELLGGPSVFLFPPKPKDTLMISRTPEVTCVVVDVSHEPEVKFNWYVDGVEVHNAKTKPREEQYNSTYRVVSVLTVLHQDWLNGKEYCKVSNKALPAPIEKTISKAKGQPREPQVYTLPPSREEMTKNQVSLTCLVGFYPSDIAVEWESNGQPENNYKTTPPVLDSDGSFFLYSKLTVDKSRWQQNVFSCSVMHEALHNHYTQKSLSLSPGK
human MMP-9 inhibitory activity IC50 compared with parent [3]: M91005-Fc-01 and M91005_D1G-Fc-01 are equivalent

The remaining lines, values ahead:

human MMP-9 inhibitory activity IC50 compared with parent [3]: equivalent to that of M91002
B1: M91002_G3: C-terminal derivative of M91002: Stag+linker 2 at the N-terminal, C-terminal 3-mer Gly-Gly-Gly (protein)
chain: GSGMKETAAAKFERQHMDSPDLGTDDDDKAMAENLYFQGDPQFGLFSKYRTPNCRTGRGPACQMGFQPVCGSDMSTYANECTLCMKIREGGHNIKIIRNGPCGGG

human MMP-9 inhibitory activity IC50 compared with parent [3]: equivalent to that of M91002
B3: M91002_G0: C-terminal derivative of M91002: Stag+linker 2 at the N-terminal, no C-terminal addition (protein)
chain: GSGMKETAAAKFERQHMDSPDLGTDDDDKAMAENLYFQGDPQFGLFSKYRTPNCRTGRGPACQMGFQPVCGSDMSTYANECTLCMKIREGGHNIKIIRNGPC
modifications: linker; binder
notes: C-terminal derivative of M91002: Stag+linker 2 at the N-terminal, no C-terminal addition

active human MMP-9-binding activity (EC50) [4]: did not bind
pro human MMP-9-binding activity [5]: did not bind
B4: wild type SPINK2: Serine Protease Inhibitor Kazal-type 2, human, SEQ ID NO: 1 (FIG. 15) (protein, listed as Homo sapiens)
chain: DPQFGLFSKYRTPNCSQYRLPGCPRHFNPVCGSDMSTYANECTLCMKIREGGHNIKIIRNGPC
